This note sets out measurements from patent US20150309012A1 (BAXTER INTERNATIONAL, published 2015).

Holding throughout (assay): cell-based or functional assay
Assay [1] deals with T1, oxMIF on the cell surface of U937 human monocytic cells (human, UniProt P14174 2-115, oxidised isoform (oxMIF); residues not stated).
In assay [2] the target is T1, oxMIF on the cell surface of U937 human …. The source holds these as a separate data set.
Assay [3] has the same target. The source holds these as a separate data set.

T1 sequence (P14174 2-115): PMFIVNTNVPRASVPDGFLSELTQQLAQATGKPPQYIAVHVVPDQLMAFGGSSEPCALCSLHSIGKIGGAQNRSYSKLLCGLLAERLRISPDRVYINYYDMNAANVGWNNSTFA

B1: anti-oxMIF antibody RAM9 (antibody, human IgG1, kappa, V domains shown)
VH: EVQLLESGGGLVQPGGSLRLSCAASGFTFSIYSMNWVRQAPGKGLEWVSSIGSSGGTTYYADSVKGRFTISRDNSKNTLYLQMNSLRAEDTAVYYCAGSQWLYGMDVWGQGTTVTVSS
VL: DIQMTQSPSSLSASVGDRVTITCRSSQRIMTYLNWYQQKPGKAPKLLIFVASHSQSGVPSRFRGSGSETDFTLTISGLQPEDSATYYCQQSFWTPLTFGGGTKVEIKR
Consider B1, for which the “IC 50 of migration inhibition of U937 cells, antibody in the inserts (upper chamber), plate 2” value in assay [1] stood at 1.1 nM. For the same molecule, in assay [2], the “IC50 of inhibition of random migration (chemokinesis) of U937 cells, Transwell, antibody in lower chamber; 25 experiments (38 plates)” value worked out at 0.8 nM and the “IC50 of inhibition of random migration (chemokinesis) of U937 cells, Transwell, antibody in lower chamber; duplicate plates (26 plates from 13 experiments)” value is 0.8 nM. Moreover, the “IC50 (inhibition of cell migration, chemokinesis assay, MI against log RAM9)” value in assay [3] amounted to 0.8 nM.
